Data: paper PMC10710050, “HCMV-secreted glycoprotein gpUL4 inhibits TRAIL-mediated apoptosis and NK cell activation” (Proceedings of the National Academy of Sciences of the …, 2023)

Target: T1, TRAIL (Recombinant Human TRAIL, BioLegend) (human, UniProt P50591 39-281)
T1 construct: TRAIL (TNFSF10), human, recombinant soluble protein from BioLegend; The catalogue number is printed for the ELISA; SPR names BioLegend only; also called TNFSF10; soluble TRAIL; source: bought: BioLegend (cat.no 752902)
T1 sequence (P50591 39-281): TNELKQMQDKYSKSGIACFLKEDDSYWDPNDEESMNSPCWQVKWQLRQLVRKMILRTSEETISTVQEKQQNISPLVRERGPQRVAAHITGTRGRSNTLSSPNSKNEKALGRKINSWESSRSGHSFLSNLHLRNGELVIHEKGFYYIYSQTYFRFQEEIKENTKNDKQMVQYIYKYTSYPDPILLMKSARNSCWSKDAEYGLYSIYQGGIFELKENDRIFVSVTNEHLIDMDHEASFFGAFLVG
Experiment: SPR; Biacore T100; gpUL4-V5 amine-coupled to a CM5 chip (5000RU), control surface soluble UL141 subtracted; TRAIL or TNFα flowed over (100 nM; kinetics from 3.125, 6.25, 12.5, 25 and 50 nM TRAIL, 1:1 binding fit); 10 mM HEPES, 150 mM NaCl, 0.005% TWEEN-20, pH 7.4
Conditions: both partners purified

B1: gpUL4-V5 (HCMV strain Merlin UL4 gene product with C-terminal V5/avitag/6his epitope tag) (natural protein)
chain: FCIFVSCSISTTTAPVEWKSPDRQIPMNITCANYSGTVNGNVTFRGLQNKTEDFLHWLLGWGHKSICSFFPKLQGNKEQHYMYGITNLTYNCTYDRLTLLNLTTENSGKYYFKREDVNSTFYYSCYNLTVT
modifications: N-linked and O-linked glycosylation on the secreted form (eight consensus N-linked sites; positions not given)
notes: the secreted form from the supernatant was used; Secreted glycoprotein; The tag is V5/avitag/6his in this order at the C-terminus; also called UL4 protein; not shown: V5, C-terminal, kept
  Kd: 234 pM
  koff: 0.0002 s⁻¹
  kon: 867000 M⁻¹ s⁻¹
